Test results: patent publication US20260132208A1 (DOMAIN THERAPEUTICS, published 2026)
Several values for one entry are separate records, joined by “and”; a condition that tells them apart may be missing. Equal entries are not always repeated.

Legend:
human CCR8 [1] = target: T1, human CCR8 (human, UniProt P51685 1-355); test: cell-based or functional assay
human CCR8 [2] = target: T1, human CCR8; test: cell-based or functional assay; remark: listed apart in the source
human CCR8 [3] = target: T1, human CCR8; test: cell-based or functional assay; remark: listed apart in the source
[4] = target: T2, human CCR8 with a SNAP-tag at the N-terminus (human, UniProt P51685 1-355, SNAP-tag labelled covalently with Lumi4-Terbium); test: cell-based or functional assay
human CCR8 [5] = target: T1, human CCR8; test: cell-based or functional assay; remark: listed apart in the source
[6] = target: T2, human CCR8 with a SNAP-tag at the …; test: HTRF Tag-lite, inhibition of hCCL1-AF647 binding to SNAP-hCCR8 on HEK-293 cells
Protocol: The inhibition of CCL1 binding to hCCR8 was evaluated with the Tag-Lite® technology from Cisbio (Revvity). Human CCR8 is engineered with a SNAP-tag at the N-terminus of the GPCR. hCCR8 SNAP-tag is transiently transfected on HEK-293 cell line using FuGene® (Promega, Madison, WI, USA). 48 hours after transfection, cells are labeled with the substrate Lumi4-Terbium® (Cisbio, Codolet, France) which covalently reacts with the SNAP-tag, for 1 h at 37° C. Thawed or freshly labeled cells are plated in a 384 low volume white plate (GREINER Bio-One, Courtaboeuf, France) (10000 cells/well/10 μl). […] The Kd was previously obtained in a saturation binding assay on the same cells. […] The plate is next incubated at 21° C. for 2 h. Detection of HTRF signal is performed on the multiplate reader EnVision (PerkinElmer, Waltham, MA, USA). The HTRF (665/620) ratio is calculated by EnVision software, the data exported are considered as the total binding. The specific binding is calculated then by subtracting the non-specific signal from the total binding. The Ki and IC₅₀ are calculated using the “One site-Fit Ki” and “One site-FitlogIC50” from GraphPad Prism 9 (Graphpad Software, San Diego, CA, USA), respectively.

human CCR8 [7] = target: T1, human CCR8; test: flow cytometry, HUT78 cells (endogenous CCR8)
Protocol: In human activated T cells model, prior to mAb incubation, cells were first incubated with 200 nM of hCCL1 (R&D Systems, Minneapolis, MN, USA) or buffer PBS (Invitrogen by Thermofisher Scientific, Illkirch-Graffenstaden, France) supplemented by 2% Fetal Bovine Serum (Invitrogen by Thermofisher Scientific, Illkirch-Graffenstaden, France) and 2 mM EDTA (Invitrogen by Thermofisher Scientific, Illkirch-Graffenstaden, France) during 1 hour at 4° C. To determine EC50 value, 8 concentrations of anti-CCR8 mAb were tested. Unbound antibodies were washed away with PBS (Invitrogen by Thermofisher Scientific, Illkirch-Graffenstaden, France) supplemented by 2% Fetal Bovine Serum (Invitrogen by Thermofisher Scientific, Illkirch-Graffenstaden, France) and 2 mM EDTA (Invitrogen by Thermofisher Scientific, Illkirch-Graffenstaden, France). Subsequently, cells are centrifuged (5 min at 400 g) and bound antibody is detected with F(ab′)2-Goat anti-Mouse IgG (H+L) Cross-Adsorbed Secondary Antibody, Alexa Fluor 488 (dilution 1/500) (Invitrogen by Thermofisher Scientific, Illkirch-Graffenstaden, France) or with F(ab′)₂-Goat anti-Human IgG Fc Secondary Antibody, PE (Invitrogen by Thermofisher Scientific, Illkirch-Graffenstaden, France) (dilution 1/1000) at 4° C. for 30 min. Detection reagent is washed away and cells are centrifuged (5 min at 400 g) and resuspended in 30 μL PBS. Bound detection antibody is quantified on a MacsQuant16 (Miltenyi, Gladbach, Germany) (B1 or B2 channel, 5000 events per acquisition). During the experiment, the respective isotype mAb controls (mouse IgG1, mouse IgG2a, mouse IgG2b, mouse IgG3 or human IgG1) (Biolegend, Amsterdam, The Netherlands) are included to exclude any unspecific binding events. EC50 values were determined via nonlinear fit “log (agonist) vs.response—Variable slope (four parameters)” function of Graphpad prism. EC50 values were not constantly determined in the same experiments.
Anti-CCR8 mAb cellular reactivity was also evaluated on native human CCR8 from HUT78 cell line by flow cytometry. In Table 4.3, Mean Fluorescence Intensity (Fold change to isotype control), the percentage of labelled cells and EC50 in nM of some anti-CCR8 antibodies are presented.

human CCR8 [8] = target: T1, human CCR8; test: cell-based or functional assay; remark: listed apart in the source
pm2 = target: T3, pm2 (sulfated tyrosine(s) among Y15, Y16, Y17; which ones is not told (the underlining of Table 1 is lost in the text)); test: ELISA on coated peptide [cont.]
T3 construct: also called sulfated CCR8 N-terminal peptide pm2
T3 sequence (peptide, as listed by the source): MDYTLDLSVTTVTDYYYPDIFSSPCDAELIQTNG
In short: (§1)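 Wells were coated with CCR8-related peptides at 500 ng/ml in carbonate/bicarbonate buffer. Anti-CCR8 mAbs were tested from 1 μg/mL in 1/10 dilutions and bound for 90 min at room temperature. Detection used TMB for 15 min with an optical density read-out.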

pm1 = target: T4, pm1 (sulfated tyrosine(s) among Y15, Y16, Y17; which ones is not told (the underlining of Table 1 is lost in the text)); test: ELISA on coated peptide [cont.]
T4 construct: also called sulfated CCR8 N-terminal peptide pm1
T4 sequence (peptide, as listed by the source): as above
In short: as §1

pm4 = target: T5, pm4 (sulfated tyrosine(s) among Y15, Y16, Y17; which ones is not told (the underlining of Table 1 is lost in the text)); test: ELISA on coated peptide [cont.]
T5 construct: also called sulfated CCR8 N-terminal peptide pm4
T5 sequence (peptide, as listed by the source): as above
In short: as §1

pwt1 = target: T6, pwt1 (none (unmodified peptide)); test: ELISA on coated peptide [cont.]
T6 construct: also called unmodified CCR8 N-terminal peptide
T6 sequence (peptide, as listed by the source): as above
In short: as §1

pm6 = target: T7, pm6 (Y16 and Y17 sulfated; Y15 not sulfated); test: ELISA on coated peptide [cont.]
T7 construct: also called sulfated CCR8 N-terminal peptide pm6
T7 sequence (peptide, as listed by the source): as above
In short: as §1

pm8 = target: T8, pm8 (Y15, Y16 and Y17 sulfated); test: ELISA on coated peptide [cont.]
T8 construct: also called sulfated CCR8 N-terminal peptide pm8
T8 sequence (peptide, as listed by the source): as above
In short: as §1

pm5 = target: T9, pm5 (Y15 and Y17 sulfated; Y16 not sulfated); test: ELISA on coated peptide [cont.]
T9 construct: also called sulfated CCR8 N-terminal peptide pm5
T9 sequence (peptide, as listed by the source): as above
In short: as §1

pm3 = target: T10, pm3 (Y17 sulfated; Y15 and Y16 not sulfated); test: ELISA on coated peptide [cont.]
T10 construct: also called sulfated CCR8 N-terminal peptide pm3
T10 sequence (peptide, as listed by the source): as above
In short: as §1

human CCR8 [9] = target: T1, human CCR8; test: cell-based or functional assay; remark: listed apart in the source

| Binder | ADCP % max phagocytosis, HUT78 targets, MDM donor 9 (human CCR8 [1]) | ADCC % max lysis, HUT78 targets, NK donor 3 (human CCR8 [2]) | ADCC % max lysis, HUT78 targets, NK donor 4 (human CCR8 [2]) | ADCC EC50, HUT78 targets, NK donor 3 (human CCR8 [2]) | ADCC EC50, HUT78 targets, NK donor 4 (human CCR8 [2]) | residual hCCL1 (100 nM) Gi2 response, protocol #2, mAb 0.08 µg/mL (human CCR8 [3]) | residual hCCL1 (100 nM) Gi2 response, protocol #2, mAb 0.4 µg/mL (human CCR8 [3]) | residual hCCL1 (100 nM) Gi2 response, protocol #2, mAb 10 µg/mL (human CCR8 [3]) | residual hCCL1 (100 nM) Gi2 response, protocol #3, mAb 0.05 µg/mL (human CCR8 [3]) | residual hCCL1 (100 nM) Gi2 response, protocol #3, mAb 0.5 µg/mL (human CCR8 [3]) | residual hCCL1 (100 nM) Gi2 response, protocol #3, mAb 5 µg/mL (human CCR8 [3]) | % hCCR8 internalization with CCL1 300 nM, mAb 1 µg/ml (HTRF) [4] | % hCCR8 internalization with CCL1 300 nM, mAb 10 µg/ml (HTRF) [4] | extrapolated top plateau of hCCL1 curve with 5 µg/mL mAb, protocol #3 (human CCR8 [5]) | IC50 [6] | Ki [6] | % of labelled cells (human CCR8 [7]) | IC50 of CCL1-induced hCCR8 Gi2 signaling (BRET, HEK-293) (human CCR8 [8]) | binding result (pm2) | binding result (pm1) | further results |
| --- | --- | --- | --- | --- | --- | --- | --- | --- | --- | --- | --- | --- | --- | --- | --- | --- | --- | --- | --- | --- | --- |
| anti-CCR8 mAb 1-34 (antibody, human IgG1, kappa) heavy: not shown light: DVVMTQTPLSLPVSLGDQASISCRCTQSLLHTNGDTYLHWYLQKPGQSPKLLIYKVSNRFSGVPDRFSGSGSGTDFTLKISRVEAEDLGVYFCSQSTHVPYTFGGGTKLEIKRTVAAPSVFIFPPSDEQLKSGTASVVCLLNNFYPREAKVQWKVDNALQSGNSQESVTEQDSKDSTYSLSSTLTLSKADYEKHKVYACEVTHQGLSSPVTKSFNRGEC | 7.27% | 25% | 28% | 218 pM | 53 pM | – | – | – | – | – | – | – | – | – | – | – | – | – | – | – | – |
| anti-CCR8 mAb 1-23 (antibody, human IgG1, kappa, V domains shown, Humanized mAb, human IgG1 / kappa) VH: QVQLVQSGPEVVKPGASVKVSCKTSGYTFTEYTIHWVRQAPGQSLEWVGGINPNNGNTRYDQKFQGRVTITRDKSASTAYMELRSLTSEDTAVYYCARVARSSGSGPYAMDYWGQGTTVTVSS VL: DVVMTQSPLSLPVTLGDQASISCRCSQSLLHTNGDTYLHWYLQRPGQSPRLLIYKVSNRFSGVPDRFSGSGSGTDFTLKISRVEAEDVGVYFCSQSTHVPYTFGGGTKVEIKR | – | 15% | 16% | 505 pM | 573 pM | 67% | 55% | 32% | 86% | 60% | 42% | 44% | 29% | 569000 % of hCCL1 (100 nM) | 0.04 µg/mL | 0.02 µg/mL | 96% | 0.022 µg/mL and 0.148 nM | binds | binds | binding result (pm4): binds; binding result (pwt1): binds; binding result (pm6): binds; binding result (pm8): binds; binding result (pm5): binds; binding result (pm3): binds |
| anti-CCR8 mAb 1-24 (antibody, human IgG1, kappa, V domains shown, Humanized mAb, human IgG1 / kappa) VH: QVQLQQSGPEVVKPGASVKVSCKTSGYTFTEYTIHWVRQSHGQSLEWVGGINPNNGNTRYDQKFKGRVTITIDKSSSTAYMELRSLTSEDTAVYYCARVARSSGSGPYAMDYWGQGTTVTVSS VL: DVVMTQSPLSLPVTLGDQASISCRCSQSLLHTNGDTYLHWYLQRPGQSPRLLIYKVSNRFSGVPDRFSGSGSGTDFTLKISRVEAEDVGVYFCSQSTHVPYTFGGGTKVEIKR | – | – | – | – | – | 77% | 66% | 41% | 73% | 52% | 37% | 44% | 36% | 366000 % of hCCL1 (100 nM) | 0.04 µg/mL | 0.02 µg/mL | 88% | 0.034 µg/mL and 0.224 nM | binds | binds | EC50 (human CCR8 [7]): 200 pM; binding result (pm4): binds; binding result (pwt1): binds; binding result (pm6): binds; binding result (pm8): binds; binding result (pm5): binds; binding result (pm3): binds |
| anti-CCR8 mAb 1-26 (antibody, human IgG1, kappa, afucosylated Fc glycan, Afucosylated humanized mAb; same chains as 1-21) heavy: not shown light: DIVMTQAAPSLSVTPGESASISCTSSKSLLHSNGNTYLYWFLQKPGQSPQLLIYRMSNLASGVPDRFSGSGSGTAFTLKISRVEAEDVGVYYCMQHREYPFTFGSGTKLEIKRTVAAPSVFIFPPSDEQLKSGTASVVCLLNNFYPREAKVQWKVDNALQSGNSQESVTEQDSKDSTYSLSSTLTLSKADYEKHKVYACEVTHQGLSSPVTKSFNRGEC | 8.29% | – | – | – | – | – | – | – | – | – | – | – | – | – | – | – | 34% | – | – | – | EC50 (human CCR8 [7]): 400 pM; MFI fold change to isotype ctrl (human CCR8 [7]): 2.5 fold; ADCC % max lysis, HUT78 targets, NK donor 1 (human CCR8 [9]): 22%; ADCC % max lysis, HUT78 targets, NK donor 2 (human CCR8 [9]): 20%; ADCC EC50, HUT78 targets, NK donor 1 (human CCR8 [9]): 2.24 pM; ADCC EC50, HUT78 targets, NK donor 2 (human CCR8 [9]): 2.16 pM |
